Assay [1] has as its target T1, biotin-peptide SMEDYVNFNF (human).
T1 peptide: Biotin-SMEDYVNFNF
Put plainly: ELISA biotin-peptide; scFv 5 ug/mL; repI. The procedure: (§1) The peptides were synthesized naked or with a N-terminal Biotin modification with a purity of >98%. All four scFvs were verified by ELISA that can be detected with anti-His antibodies. ELISA was performed for scFv-peptide binding validation. Briefly, naked peptides were coated (50 μg/mL) in 0.58M carbonate-bicarbonate buffer pH9.5, 100 μL/well, 4° C. O/N. Then after blocking (3% BSA-PBS, 300 μL/well 37° C. 1.5 h) and washing (PBS+Tween-20 0.05% v/v (0.05% PBST), wells were incubated with each purified scFv antibody at concentration of 1 μg/mL in PBS at 37° C. 1 h. After washing (0.05% PBST), wells were incubated with secondary antibodies (goat anti-His IgG-HRP) in PBS, 37° C., 30 min. After washing, and incubation with TMB substrate, reactions were stopped with 2M HCl and reading was quantified at OD450.
(§2) ELISA with biotin-conjugated peptides (5 μg/mL) was performed very similar to described above with minor modifications.
(§3) A full curve ELISA was performed for each positive scFv/biotin-peptide pair in order to confirm previous results. Tables 15-17 show ELISA results of the dose-dependent full curve for each positive peptide with scFv “CCR9_HUM”, “Comp-2” and “Comp-3”, respectively.

Assay [2] concerns the target T2, biotin-peptide MEDYVNFNFT (human).
T2 peptide: Biotin-MEDYVNFNFT
Put plainly: ELISA biotin-peptide; scFv 5 ug/mL; repI. Here is the method: as §1, §2, §3

Assay [3] concerns the target T3, biotin-peptide TSSMEDYVNF (human).
T3 peptide: Biotin-TSSMEDYVNF
In words: ELISA biotin-peptide; scFv 5 ug/mL; repI. Here is the method:
as §1, §2, §3

In assay [4] the target is T4, biotin-peptide SSMEDYVNFN (human).
T4 peptide: Biotin-SSMEDYVNFN
Put plainly: ELISA biotin-peptide; scFv 5 ug/mL; repI. The procedure: as §1, §2, §3

Assay [5] addresses T5, Peptide 2-BSA (GSESTSSMED-C conjugated to BSA) (human).
T5 peptide: GSESTSSMEDC(BSA)
Put plainly: ELISA; Ab 0.01563 ug/mL; repII. The procedure: (§4) In brief, plates with each non-conjugated peptide (50 μg/mL) or BSA-conjugated peptide (5 μg/mL) were coated in 0.58M carbonate-bicarbonate buffer pH9.5, 100 μL/well, at 4° C. […] After washing, wells were incubated with the 3, 3′,5,5′-Tetramethylbenzidine (TMB) HRP substrate and reactions were stopped with 2M HCl and OD450 was recorded.

Assay [6] has as its target T6, Peptide 3-BSA (SSMEDYVNFN-C conjugated to BSA) (human).
T6 peptide: SSMEDYVNFNC(BSA)
In words: ELISA; Ab 0.01563 ug/mL; repII. The procedure: as §4

The target of assay [7] is T7, Peptide 3, non-conjugated (SSMEDYVNFN-C) (human).
T7 construct: With the extra C-terminal Cys
T7 peptide: SSMEDYVNFNC
In words: ELISA; Ab 0.01563 ug/mL; repII. The procedure:
as §4

In assay [8] the target is T8, antigen peptide-BSA (immunisation peptide #1 MADDYGSESTSSMEDYVNFNF-C conjugated to BSA) (human, extra C-terminal Cys conjugated to BSA).
T8 construct: also called Positive control antigen peptide-BSA; MADDY peptide
T8 peptide: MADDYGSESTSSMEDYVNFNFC
In words: ELISA; Ab 0.01563 ug/mL; repII. Here is the method:
as §4

The target in assay [9] is T9, Peptide 2, non-conjugated (GSESTSSMED-C) (human).
T9 construct: With the extra C-terminal Cys
T9 peptide: GSESTSSMEDC
In words: ELISA; Ab 0.01563 ug/mL; repII. Here is the method:
as §4

Assay [10] has as its target T5, Peptide 2-BSA (GSESTSSMED-C conjugated …). Put plainly: ELISA; Ab 0.5 ug/mL; repII. Here is the method:
as §4

The target in assay [11] is T6, Peptide 3-BSA (SSMEDYVNFN-C conjugated …). Put plainly: ELISA; Ab 0.5 ug/mL; repII. The procedure:
as §4

Assay [12] deals with T7, Peptide 3, non-conjugated (SSMEDYVNFN-C). In words: ELISA; Ab 0.5 ug/mL; repII. Here is the method: as §4
Assay [13] addresses T8, antigen peptide-BSA (immunisation …). Put plainly: ELISA; Ab 0.5 ug/mL; repII. The procedure: as §4
Assay [14] deals with T10, Peptide 1-BSA (MADDYGSEST-C conjugated to BSA) (human).
T10 peptide: MADDYGSESTC(BSA)
In words: ELISA; Ab 0.5 ug/mL; repII. The procedure: as §4

Assay [15] concerns the target T11, Peptide 4-BSA (SMEDYVNFNF-C conjugated to BSA) (human).
T11 peptide: SMEDYVNFNFC(BSA)
Put plainly: ELISA; Ab 0.5 ug/mL; repII. Here is the method:
as §4

The target in assay [16] is T9, Peptide 2, non-conjugated (GSESTSSMED-C). Put plainly: ELISA; Ab 0.5 ug/mL; repII. Here is the method:
as §4

Assay [17] addresses T12, Peptide 1, non-conjugated (MADDYGSEST-C) (human).
T12 construct: With the extra C-terminal Cys
T12 peptide: MADDYGSESTC
Put plainly: ELISA; Ab 0.5 ug/mL; repII. The procedure:
as §4

The target in assay [18] is T13, Peptide 4, non-conjugated (SMEDYVNFNF-C) (human).
T13 construct: With the extra C-terminal Cys
T13 peptide: SMEDYVNFNFC
Put plainly: ELISA; Ab 0.5 ug/mL; repII. The procedure:
as §4

For assay [19], the target named is T14, BSA (negative control coating) (bovine, UniProt P02769 25-607).
T14 construct: also called Negative control BSA
T14 sequence (P02769 25-607 limits assumed): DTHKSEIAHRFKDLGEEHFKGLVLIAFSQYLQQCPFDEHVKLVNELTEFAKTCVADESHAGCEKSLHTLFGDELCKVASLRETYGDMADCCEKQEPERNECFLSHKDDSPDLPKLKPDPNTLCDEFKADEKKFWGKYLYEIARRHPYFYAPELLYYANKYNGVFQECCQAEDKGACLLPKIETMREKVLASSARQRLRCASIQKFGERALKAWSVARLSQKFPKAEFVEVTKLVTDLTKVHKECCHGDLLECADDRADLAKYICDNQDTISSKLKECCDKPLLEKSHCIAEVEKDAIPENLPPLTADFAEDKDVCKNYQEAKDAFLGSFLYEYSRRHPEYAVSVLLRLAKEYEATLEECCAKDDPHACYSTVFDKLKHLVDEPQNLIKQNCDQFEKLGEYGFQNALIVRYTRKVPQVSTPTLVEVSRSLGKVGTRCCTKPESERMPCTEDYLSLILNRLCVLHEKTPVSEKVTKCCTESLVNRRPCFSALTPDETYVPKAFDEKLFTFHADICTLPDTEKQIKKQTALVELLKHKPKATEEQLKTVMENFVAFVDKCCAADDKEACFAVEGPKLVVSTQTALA
Put plainly: ELISA; Ab 0.5 ug/mL; repII. The procedure: as §4

For assay [20], the target named is T5, Peptide 2-BSA (GSESTSSMED-C conjugated …). In words: ELISA; Ab 0.01563 ug/mL; repI. The procedure:
as §4

The target of assay [21] is T7, Peptide 3, non-conjugated (SSMEDYVNFN-C). Put plainly: ELISA; Ab 0.01563 ug/mL; repI. The procedure: as §4
Assay [22] concerns the target T8, antigen peptide-BSA (immunisation …). Put plainly: ELISA; Ab 0.01563 ug/mL; repI. Here is the method:
as §4

Assay [23] has as its target T11, Peptide 4-BSA (SMEDYVNFNF-C conjugated …). Put plainly: ELISA; Ab 0.01563 ug/mL; repI. Here is the method:
as §4

The target of assay [24] is T13, Peptide 4, non-conjugated (SMEDYVNFNF-C). In words: ELISA; Ab 0.01563 ug/mL; repI. Here is the method: as §4

OD450 data for two molecules are collected here from patent publication US20260232732A1 (FUNDACI INSTITUT DE RECERCA CONTRA LA LEUC MIA JOSEP …, published 2026).

Where no end group is shown, it is not given here. The star is where a group is joined. Biotin = O=C1N[C@H]2[C@H](CS[C@H]2CCCCC(=O)*)N1

B1: CCR9_HUM2 scFv (humanized anti-CCR9 scFv, SEQ ID NO: 17 with C-terminal 6xHis tag) (scFv)
scFv: QVQLVQSGAEVKKPGASVKVSCTASGYSFTDYIIYWVKQAHGQSLEWMGYIDPNNYNTRYSQKFQGKVTITVDKSSTSAYMELNSLTSDDTAVYYCARDVYWGQGTTVTVSSGGGGSGGGGSGGGGSGGGGSDVVMTQTPLSLSVTPGQPASISCRSSQSLVHSNGKTYLQWYLQKPGQSPKLLIYKVSNRFSGVPDRFSGSGSGTDFTLKISRVEAEDVGVYFCAQSTHVWTFGGGTKVEIKRAHHHHHH
For B1, the OD450 worked out at 1.78 OD in assay [1], 1.71 OD in assay [2], 1.47 OD in assay [3] and 1.86 OD in assay [4].

B2: anti-CCR9 antibody clone 115 (murine, from hybridoma #115) (antibody, V domains shown)
VH: QVQLKQSGPELVKPGTSVRVSCTASGYSFTDYIIYWVKQSHGRSLEWIGYIDPNNYNTRYSQKFKGKATLTVDKSSTSAFMHLNSLTSDDSAVYYCARDVYWGQGTTLTVSS
VL: DVVMTQTPLSLTVSLGDQASISCRSSQSLVHSNGKTYLQWYLQKPGQSPKLLIYKVSNRFSGVPDRFSGSGSGTDFTLKISRVEAEDLGVYFCAQSTHVWTFGGGTKLEIKR
notes: Mouse IgG1
In the case of B2, the OD450 in assay [5] is 0.01 OD; in assay [6], 1.34 OD; in [7] it was 1.4 OD; in [8], 1.21 OD; in assay [9], 0.01 OD; in assay [10], 0.02 OD. Moreover, the OD450 in [11] is 2.06 OD; in assay [12] it was 1.83 OD; in assay [13] it was 2.57 OD; in assay [14] it was 0.02 OD; in [15] it was 2.65 OD; in assay [16], 0.02 OD. Further, the OD450 came to 0.02 OD in assay [17]; 2.37 OD in assay [18]; 0.02 OD in assay [19]; 0.01 OD in [20]; 1.47 OD in assay [21]; 1.1 OD in assay [22]. The OD450 in [23] was 0.91 OD; in assay [24] it was 0.38 OD.
